Legend:
GP1 = GP1 (Ebola virus (EBOV), UniProt Q05320 33-501); assay: ELISA on coated truncated GP
GP 95-295 = GP 95-295 (Ebola virus (EBOV), UniProt Q05320 95-295); assay: ELISA on coated truncated GP
sGP = sGP (Ebola virus (EBOV), UniProt Q05320 33-295); assay: ELISA on coated truncated GP
SUDV GP = biological target: T1, SUDV GP (SUDV, UniProt Q7T9D9 33-650); assay: ELISA, coated GP 1 μg/mL, antibody titrated from 10 μg/mL
T1 sequence: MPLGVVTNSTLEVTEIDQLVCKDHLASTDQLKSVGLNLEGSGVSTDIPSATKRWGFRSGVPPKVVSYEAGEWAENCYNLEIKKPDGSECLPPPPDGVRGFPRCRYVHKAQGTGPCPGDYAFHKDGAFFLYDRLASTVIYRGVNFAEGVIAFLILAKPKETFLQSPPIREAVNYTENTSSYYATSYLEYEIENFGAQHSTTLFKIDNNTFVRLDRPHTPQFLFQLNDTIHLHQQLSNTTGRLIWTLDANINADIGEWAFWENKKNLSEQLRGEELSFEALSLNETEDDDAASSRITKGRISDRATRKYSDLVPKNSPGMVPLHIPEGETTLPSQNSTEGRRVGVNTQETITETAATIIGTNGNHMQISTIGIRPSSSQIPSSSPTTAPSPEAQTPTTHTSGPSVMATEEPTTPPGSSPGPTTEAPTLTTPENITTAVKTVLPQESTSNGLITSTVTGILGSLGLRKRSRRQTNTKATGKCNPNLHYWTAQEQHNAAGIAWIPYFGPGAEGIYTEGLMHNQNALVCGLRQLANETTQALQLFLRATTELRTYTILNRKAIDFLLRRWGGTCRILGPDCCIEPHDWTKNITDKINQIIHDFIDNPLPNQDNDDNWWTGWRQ

EBOV GP = biological target: T2, EBOV GP (Ebola virus (EBOV), UniProt Q05320 33-650); assay: as above
T2 sequence: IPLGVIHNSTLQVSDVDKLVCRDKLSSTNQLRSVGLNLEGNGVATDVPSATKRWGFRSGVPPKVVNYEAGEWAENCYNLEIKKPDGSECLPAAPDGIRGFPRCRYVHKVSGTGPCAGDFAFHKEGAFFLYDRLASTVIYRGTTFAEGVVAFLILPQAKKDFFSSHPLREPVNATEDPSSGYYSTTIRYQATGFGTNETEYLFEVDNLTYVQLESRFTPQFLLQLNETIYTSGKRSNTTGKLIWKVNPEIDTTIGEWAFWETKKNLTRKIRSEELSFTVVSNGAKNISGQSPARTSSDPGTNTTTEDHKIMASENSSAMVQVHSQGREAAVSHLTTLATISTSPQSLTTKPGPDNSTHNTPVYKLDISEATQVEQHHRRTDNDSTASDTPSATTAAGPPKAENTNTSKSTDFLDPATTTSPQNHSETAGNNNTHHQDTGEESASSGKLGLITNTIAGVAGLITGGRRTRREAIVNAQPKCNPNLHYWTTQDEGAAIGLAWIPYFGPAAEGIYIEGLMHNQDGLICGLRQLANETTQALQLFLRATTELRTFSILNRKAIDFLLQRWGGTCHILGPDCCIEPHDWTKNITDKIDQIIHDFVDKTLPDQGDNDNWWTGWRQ

RESTV GP = biological target: T3, RESTV GP (RESTV, UniProt Q66799 34-651); assay: as above
T3 sequence: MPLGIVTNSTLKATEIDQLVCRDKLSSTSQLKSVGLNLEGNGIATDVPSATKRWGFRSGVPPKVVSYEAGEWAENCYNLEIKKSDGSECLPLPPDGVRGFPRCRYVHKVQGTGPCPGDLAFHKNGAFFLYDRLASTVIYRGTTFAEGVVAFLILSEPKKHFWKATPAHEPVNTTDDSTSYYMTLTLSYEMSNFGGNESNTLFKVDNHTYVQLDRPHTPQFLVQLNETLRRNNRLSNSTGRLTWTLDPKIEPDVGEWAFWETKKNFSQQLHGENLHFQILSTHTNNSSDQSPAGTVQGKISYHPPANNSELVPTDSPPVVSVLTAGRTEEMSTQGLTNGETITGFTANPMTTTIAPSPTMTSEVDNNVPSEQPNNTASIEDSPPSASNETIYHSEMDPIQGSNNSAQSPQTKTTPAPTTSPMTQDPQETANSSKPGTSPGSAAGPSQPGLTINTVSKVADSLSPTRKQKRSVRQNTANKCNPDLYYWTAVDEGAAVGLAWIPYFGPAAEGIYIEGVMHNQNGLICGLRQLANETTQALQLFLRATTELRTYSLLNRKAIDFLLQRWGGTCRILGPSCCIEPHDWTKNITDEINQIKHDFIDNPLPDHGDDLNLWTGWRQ

B1: 抗埃博拉病毒糖蛋白GP1亚基的单克隆抗体5E9 (antibody, V domains shown)
VH: EVQLLESGGGLVKPGGSLRLSCVASGFTFTNAWMNWVRQAPGKGLEWVGRIKSKTDSGTTDYAAPVNGRFTISRDDSKNTLYLQMNSLKTEDTAVYYCTTRYQYNGMDVWGQGTTVTVSS
VL: QPVLTQPPSVSGAPGQRVTISCTGRSSNIGAGYDVHWYQHLPGTAPKLLIYANTNRPSGVPDRFSGSKSGTSASLAITGLQPGDEADYYCQSYDSRLSDHVVFGGGTKLTVLG
In the case of B1, the EC50 (GP1) is reported as 4.1 ng/mL, the EC50 (GP 95-295) is reported as 11.8 ng/mL and the EC50 (sGP) is reported as 5 ng/mL. The EC50 (SUDV GP) was > 1000 ng/mL, the EC50 (EBOV GP) was 6 ng/mL and the EC50 (RESTV GP) was 149 ng/mL.

— patent publication CN111138530A (INST MILITARY MEDICINE ACADEMY MILITARY SCIENCES PLA, dated 2020)
